Experimental data published in patent US20110105397A1, “METHOD FOR TREATING HEART FAILURE WITH STRESSCOPIN-LIKE PEPTIDES” (priority 2009, published 2011).
Several values for one entry are separate records, joined by “and”; a condition that tells them apart may be missing. Equal values may be shown once. Where no end group is shown, it is not given here.

Columns and labels:
[1] = target: T1, human corticotrophin releasing hormone receptor type 2 (CRHR2) (human) (UniProt Q13324); assay: radioligand competition against [125I]-anti-sauvagine-30, membranes of SK-N-MC cells with human CRHR2
T1 sequence (looked up): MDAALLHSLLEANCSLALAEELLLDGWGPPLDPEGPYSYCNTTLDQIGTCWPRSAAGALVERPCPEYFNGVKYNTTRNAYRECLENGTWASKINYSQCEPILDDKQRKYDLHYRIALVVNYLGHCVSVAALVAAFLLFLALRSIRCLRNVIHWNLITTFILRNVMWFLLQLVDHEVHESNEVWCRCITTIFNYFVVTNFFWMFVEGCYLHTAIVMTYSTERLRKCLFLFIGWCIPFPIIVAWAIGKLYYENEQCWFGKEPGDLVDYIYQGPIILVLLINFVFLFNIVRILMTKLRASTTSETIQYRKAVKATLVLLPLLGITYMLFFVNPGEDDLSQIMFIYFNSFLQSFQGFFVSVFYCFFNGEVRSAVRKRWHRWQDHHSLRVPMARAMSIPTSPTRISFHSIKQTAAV

[2] = target: T2, human corticotrophin releasing hormone receptor type 1 (CRHR1) (human, UniProt P34998 24-415); assay: radioligand competition against [125I]-(Tyr0)-sauvagine, CRHR1 assay; ND = Not detectable
T2 construct: whole, on cells; cAMP assay on whole cells; radioligand assay on cell membranes; also called h-CRHR1; CRH receptor type 1
T2 sequence (looked up): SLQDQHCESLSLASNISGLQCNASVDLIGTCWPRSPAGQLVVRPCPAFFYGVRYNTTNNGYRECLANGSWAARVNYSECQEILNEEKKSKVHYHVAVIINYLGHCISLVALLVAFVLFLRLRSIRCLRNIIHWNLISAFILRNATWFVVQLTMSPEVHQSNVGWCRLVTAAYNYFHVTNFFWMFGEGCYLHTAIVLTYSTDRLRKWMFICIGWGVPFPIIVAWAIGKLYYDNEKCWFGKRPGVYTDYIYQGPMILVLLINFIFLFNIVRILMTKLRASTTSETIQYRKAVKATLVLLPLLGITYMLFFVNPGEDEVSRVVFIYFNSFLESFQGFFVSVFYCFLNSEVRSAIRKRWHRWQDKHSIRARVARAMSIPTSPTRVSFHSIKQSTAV

[3] = target: T1, human corticotrophin releasing hormone receptor type 2 (CRHR2) (human); assay: cell-based or functional assay

pKI [1]: 7.57 -log10(M)
binding result [2]: no binding
pA50 [3]: 9.32 -log10(M) and 9.58 -log10(M) and 9.23 -log10(M)
B1: human stresscopin related peptide (peptide)
peptide: HPGSRIVLSLDVPIGLLQILLEQARARAAREQATTNARILARV-NH2
notes: also called h-SRP
